Experimental data from patent JP2014141434A (dated 2014).

Key:
[1] = biological target: T1, N末端FLAG−tag付加型ヒトROBO4細胞外領域ドメイン欠損体 hROBO4−341 (human, UniProt Q8WZ75 341-1007); assay: flow cytometry, transfected HEK293 cells
T1 construct: On HEK293 cells; also called pCI−FLAG−hROBO4−341; pCI−hROBO4−341
T1 sequence: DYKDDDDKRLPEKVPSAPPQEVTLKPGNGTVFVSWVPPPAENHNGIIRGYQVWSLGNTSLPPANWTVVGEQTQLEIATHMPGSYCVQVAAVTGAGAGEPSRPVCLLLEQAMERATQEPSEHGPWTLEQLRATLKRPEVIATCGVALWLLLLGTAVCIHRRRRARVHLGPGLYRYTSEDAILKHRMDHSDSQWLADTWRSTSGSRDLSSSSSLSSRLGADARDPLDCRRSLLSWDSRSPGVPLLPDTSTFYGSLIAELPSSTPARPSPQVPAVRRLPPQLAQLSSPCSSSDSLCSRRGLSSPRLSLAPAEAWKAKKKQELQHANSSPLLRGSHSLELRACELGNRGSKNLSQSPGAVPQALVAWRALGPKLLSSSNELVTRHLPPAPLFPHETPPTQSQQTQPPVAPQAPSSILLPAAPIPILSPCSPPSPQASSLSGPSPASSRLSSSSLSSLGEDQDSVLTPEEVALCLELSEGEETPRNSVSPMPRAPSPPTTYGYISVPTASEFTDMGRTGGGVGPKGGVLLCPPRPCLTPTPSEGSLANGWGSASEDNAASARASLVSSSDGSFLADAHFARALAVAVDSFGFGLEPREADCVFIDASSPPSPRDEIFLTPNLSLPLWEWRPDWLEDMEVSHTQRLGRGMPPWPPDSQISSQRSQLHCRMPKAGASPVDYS

[2] = biological target: T2, N末端FLAG−tag付加型ヒトROBO4細胞外領域ドメイン欠損体 hROBO4−225 (human, UniProt Q8WZ75 225-1007); assay: flow cytometry, transfected HEK293 cells
T2 construct: On HEK293 cells; also called pCI−FLAG−hROBO4−225; pCI−hROBO4−225
T2 sequence: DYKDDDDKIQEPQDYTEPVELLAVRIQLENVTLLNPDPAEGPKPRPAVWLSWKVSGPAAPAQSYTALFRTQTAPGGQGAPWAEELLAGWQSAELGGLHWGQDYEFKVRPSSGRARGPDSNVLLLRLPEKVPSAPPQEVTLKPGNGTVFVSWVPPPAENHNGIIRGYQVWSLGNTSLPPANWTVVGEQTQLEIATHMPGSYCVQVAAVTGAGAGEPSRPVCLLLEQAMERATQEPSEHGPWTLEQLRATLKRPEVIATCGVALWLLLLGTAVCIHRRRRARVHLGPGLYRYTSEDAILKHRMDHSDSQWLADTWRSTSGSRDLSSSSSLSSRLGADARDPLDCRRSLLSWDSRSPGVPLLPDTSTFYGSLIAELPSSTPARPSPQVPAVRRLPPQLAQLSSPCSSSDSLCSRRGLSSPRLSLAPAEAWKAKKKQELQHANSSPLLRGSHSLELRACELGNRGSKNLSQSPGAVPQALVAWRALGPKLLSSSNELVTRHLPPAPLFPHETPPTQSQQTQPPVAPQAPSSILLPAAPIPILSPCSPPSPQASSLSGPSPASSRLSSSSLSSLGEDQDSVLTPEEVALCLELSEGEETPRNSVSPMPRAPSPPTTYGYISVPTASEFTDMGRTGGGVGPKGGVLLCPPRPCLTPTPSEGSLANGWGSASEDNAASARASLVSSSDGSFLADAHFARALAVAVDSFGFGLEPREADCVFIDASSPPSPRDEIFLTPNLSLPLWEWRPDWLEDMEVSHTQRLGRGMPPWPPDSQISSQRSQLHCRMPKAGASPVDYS

[3] = biological target: T3, N末端FLAG−tag付加型全長ヒトROBO4 hROBO4−28 (human, UniProt Q8WZ75 28-1007); assay: flow cytometry, transfected HEK293 cells, 10 μg/mL
T3 construct: On HEK293 cells; also called pCI−FLAG−hROBO4−28
T3 sequence: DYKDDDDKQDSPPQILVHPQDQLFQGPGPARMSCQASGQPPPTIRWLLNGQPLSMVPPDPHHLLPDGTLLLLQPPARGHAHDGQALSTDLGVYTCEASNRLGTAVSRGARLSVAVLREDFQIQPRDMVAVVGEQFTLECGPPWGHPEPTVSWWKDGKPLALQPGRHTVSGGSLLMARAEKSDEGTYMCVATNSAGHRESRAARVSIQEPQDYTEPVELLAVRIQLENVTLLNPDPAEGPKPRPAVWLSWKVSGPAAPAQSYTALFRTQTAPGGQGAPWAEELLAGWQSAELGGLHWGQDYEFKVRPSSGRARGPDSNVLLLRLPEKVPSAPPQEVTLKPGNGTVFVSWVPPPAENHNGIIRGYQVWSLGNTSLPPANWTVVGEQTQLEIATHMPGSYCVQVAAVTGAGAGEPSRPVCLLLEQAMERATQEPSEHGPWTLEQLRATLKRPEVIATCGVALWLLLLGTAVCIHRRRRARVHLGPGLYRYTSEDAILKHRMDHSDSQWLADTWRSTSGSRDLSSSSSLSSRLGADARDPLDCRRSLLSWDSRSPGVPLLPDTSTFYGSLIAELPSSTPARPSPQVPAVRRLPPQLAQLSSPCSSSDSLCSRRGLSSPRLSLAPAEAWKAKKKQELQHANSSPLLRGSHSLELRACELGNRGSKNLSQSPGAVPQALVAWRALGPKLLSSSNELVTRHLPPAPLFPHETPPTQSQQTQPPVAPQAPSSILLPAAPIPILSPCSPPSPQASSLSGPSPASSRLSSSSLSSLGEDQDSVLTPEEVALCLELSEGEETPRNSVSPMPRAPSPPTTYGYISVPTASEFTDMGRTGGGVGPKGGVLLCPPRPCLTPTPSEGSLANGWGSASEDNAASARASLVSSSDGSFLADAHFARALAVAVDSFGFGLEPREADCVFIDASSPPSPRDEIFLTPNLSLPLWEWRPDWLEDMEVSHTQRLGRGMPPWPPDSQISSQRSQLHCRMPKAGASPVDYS

B1: 抗ROBO4マウスモノクローナル抗体 MAb1 (antibody, V domains shown)
VH: EVQLVESGGGLVKPGGSLKLSCAASGFTFSTYAMSWVRQTPEKRLEWVATISNGGTYTYYPDSVKGRFTISRDNAENTLYLQMSSLRSEDTAMYFCARLIYYDYLDYWGHGTTLTVSS
VL: DAVMTQTPLSLPVSLGDQASISCRSSQSLENSNGNTYLNWYFQKPGQSPQLLIYRVSNRFSGVLDRFSGSGSGTDFTLKISRVEAEDFGVYFCLQVTHVPWTFGGGTKLEIKR
notes: Mouse IgG1 (gamma 1) / kappa from a hybridoma; The constant regions are not in the listing; also called MAb1
[1]
  binding result: no binding (tested: 10 μg/mL)
[2]
  binding result: no binding (tested: 10 μg/mL)
[3]
  binding result: binds
